Experimental data published in the DeepSol protein solubility set.

Assay: soluble on expression in E. coli; label from the status in PepcDB or PDB records

Soluble on expression in E. coli, not soluble:
MGERGVEMRLRIRFESAECEVELYEEWAPETVRAIADALPIKSTANRWGDEIYFTTQVAVEKEENSKDVVELGDVAYWIPGKAICLFFGKTPISDDKIRPASAVNVIGRIVNSMEGLKGVADGESVVVERA, MGSDKIHHHHHHMRILLVGHYPPHKGGVARHVKQLKECLEKRHEVYVLTYGTVAVEEENVYSVKVPNIFGIRGTSFALLASKKIVKLHEKYNFDLVHAHYVGTTSFAGVLAKRKTGVPLVITAHGSDLEFMSRLPLGGYFVKTSIMEADYVIAVSHYLAKKALELGASRISVIPNWTELSGESERKYILFLGRVASYKGIEDFIELAKRFPGEEFVVAGEGPLLKKLRAKSPPNVKFLGYVPAEDVLKKAKVLVLPSKREGFGLVVIEANSFKVPVLGRNVGGIRELIRFSKNGYLFEDIEDAITYLKTLLVPKTNVKLGSIGKRISKGHSQEKMCERVEEIYREVIS, MTVVIGVLALQGAFIEHVRHVEKCIVENRDFYEKKLSVMTVKDKNQLAQCDALIIPGGESTAMSLIAERTGFYDDLYAFVNPSKVTWGTCAGLIYISQQLSNEAKLVKTLNLLKVKVKRNAFGRQAQSSTRICDFSNFIPHCNDFPATFIRAPVIEEVLDPEHVQVLYKLDGKDNGGQELIVAAKQKNNILATSFHPELAENDIRFHDWFIREFVLKNYSK, MSLEQELKLLFLRAHQRALSSLQFTEEAVDFLISCADGDARRLLNLLEQTKTACLTIKTAVVDVELLHNVIVQNSRRFDKGGEAFYDQISALHKSVRGSNPDAALYWLCRMLDGGVDPYYLARRIIRMSWEDIGLADPKAIQIANDAAATYERLGSPEGELALAQAVIYLSVAAKSNAGYVAFNQAMEFIKRDKSREVPIHLRNAPTQLMKKLGYGHEYRYAHDEPHGYAAGECYLPEGMPEVNWYNPVQRGLETKIAEKLAFLRQLDKDVKKEGHHHHHH, FWGVWASEPPHPVLHASHDAAGWRLRGTKAWCSGASMCTHALVTARVDEQPRLFAVDLREPGVTAGRGGWRNPGMAATDTESVTFDGVPARPVGAPDE, MKEKIPFYNEKEFHYMMKKTKKGTFSGWYIINPENNSVEFSGSFNRQFKLNKPVIPVNTEYVTRKEFNEYKDSNDQRLTKIENKVDKLEIKVDKLEKKVDKLEVKVDKLVETVNAQGEDLNNFKVEVRGTLQSQGETLQLILQTLQGMSKRLDSVEGRLDSMDGRLDSMETRLDKIDPLKLEHHHHHH, MGILFMSKVGLRGDRRSEGDEVLDPLRQALDSSMQSHNLYQHPQHLAFHVSAPVASTVQQASGLLGPLPHLSSFALQPAHSLLPPLGSHGAGFQENGAKAES, GPGSMSAHSAARRWTNLAGIGSCHPRHHHYPTSTKEVQDAVELVRSQNGKCRVAGAGKSPNTATFTNEHLIHMERMNRILSIDTVAHTITCEAGAVMEEVMRSVDKVGLMVRCVPSYVRTTVGGCIATATHSSGIQCHCLSDYVRGLKIVDGCAQIRTLVAGKDDAELRLAACHLGVMGIVTEVTLEVQPRIQWKLVSQPLLMKDATNAALVAEKVKSTEYYRWWWVPHTDGCYESYGRVESTTGISALPPLPDALTAQDDAPVQLSPAALQEESRTNESAERAGDRSISLIVKSALKYIATDFVRHQVVECSLYAACLCPAIQPYVNKAYRRAFFSAPQVQRGSALECFTFDCLFKQWANEWAIDASRAVEAFNRLRDMIDREGMLLHFPVEFRFTAPDVSDMSPAVGRPTCWIGVVMYRPYGQEARDTRRCYDGFCRVMEEMGGRPHWAKYYDWGHREITATYGDHWERFLALRRRMDPDDIFVNGWFRNLMSPDRVNSTACTP, MLKEVPIKRRQSTKIYVGNVPVGGDAPIAVQSMTNTRTTDIEATIAQIKALERVGADIVRVSVPTMDAAEAFKVIKQQVNVPLVADIHFDYRIALKVAEYGVDCLRINPGNIGNEERIRAVVDCAKDKNIPIRIGVNAGSLERDLQEKYGEPTPQALLESALRHVEILDRFNFDQFKVSVKASDVFLAVESYRLLAKAIKQPIHLGITEAGGARAGSVKSAIGLGLLLSEGIGDTLRVSLAADPVDEVKVGFDILKSLRIRSRGINFVACPTCSRQEIDVIATVNALEQRLEDILTPMDVSIIGCVVNGPGEALVSDLGVTGSNKMSGFYLDGVRQKERFDNDKLIDQLEAKIRAKVAQQHHRIAIEQILEHHHHHH, MGSDKIHHHHHHMEMIMRPDRSLFIVEDDATFAKTLKRSFEKRDYDVVVCHGREDLLGALETAVPAYAVVDLKLGARGSGLECVKLLSARDTSMRIVVLTGFASIATAVEAIKLGACHYLAKPANTDDIEAAFGRAEGDVSVSLSSRPTSIKNLEWERIHETLVETGFNISETARRLGLHRRTLARKLEKRVVR, MKPTTRSASKRANAESSGVNQPEKKSRIPETEIVEDPLEIEVPPASADGTDNKSFSENEYDDDHSSSSDEESDDEYVVETHKSSMVDAAESSEGERPDERIVRELEQKIARGLKNDRILKKKKKALDGEVSDTEDVVCEYEPQAMPKQRRRRLYRRKMTRPQGVPKRRRIKRPDLELADDYTCDTFAEQGLTLKSLTSDIKQDDPEVDWKAMRRMGIGIRSTKRDEINSDEDEADIISHSFSFYQTRNSKEQVAQAVELNMNPFSEKIASYNAPKSVHGYSRSSIQNQHSGFIDKNDIKYPDELLWQEPFTHLVFFQSTFNAHESSIKFLNNVANSKKQERDSKLMKEIRERIKQKSLGHVDVPIDYTNVESTSEQPSTIDQYSLPDLTSQCDEGTIKEEEDFDYLMVDAEF, MGHHHHHHSHMTDQTYCDRLVQDTPFLTGHGRLSEQQVDRIILQLNRYYPQILTNKEAEKFRNPKASLRVRLCDLLSHLQRSGERDCQEFYRALYIHAQPLHSRLPSRHALRKFHITNHACLVLARGGHPSLPLMAWMSSMTTQVCCSPGLASPLASAPPQRPPSGPEGRVWQAQAVQMLVSVSHFLPLPPSLSHGSFHTAWGILYVHSCPSFSNLIPRGSLHVCVDSNLVPTAAWRS, MKIALINENSQASKNHIIYDSLKEATDKKGYQLFNYGMRGEEGESQLTYVQNGLMAAILLNTKAVDFVVTGCGTGVGAMLALNSFPGVVCGLAVDPTDAYLYSQINGGNALSIPYAKGFGWGAELTLKLMFERLFAEEMGGGYPRERVIPEQRNARILNEVKQITHNDLMTILKIIDQDFLKDTISGKYFQEYFFENCQDDEVAAYLKEVLA

Soluble on expression in E. coli, soluble:
GPLGSPWYYGKVTRHQAEMALNERGHEGDFLIRDSESSPNDFSVSLKAQGKNKHFKVQLKETVYCIGQRKFSTMEELVEHYKKAPIFTSEQGEKLYLVKHLS, EVKLVESGGGLVLPGGSLRLSCATSGFTFTDYYMTWVRQPPGKALEWLGFIGNKANDYTTEYSASVKGRFTISRDDSQSILYLQMSTLRAEDRATYYCATVYGNYPYFDVWGAGTTVAVSSAKTTPPSVYPLAPVCGGTTGSSVTLGCLVKGYFPEPVTLTWNSGSLSSGVHTFPAVLQSGLYTLSSSVTVTSSTWPSQSITCNVAHPASSTKVDKKIEPR, MLEEIPSSVEADLMPNLDSNVSSDNGTSKRFRIQANAVEARSFFASLVKGTEYSVAIHPAVQGNITVNLSDVTLDEVLSVVQNMYGYDVMKSGKVIQVYPAGMRTVTIPVDYLQFKRSGRSLTSIVTGSVTSAGTSNSGGSSDSSDSSDSNNSNNGNDSSTTSTGGTRIETITESDFWPMLQQAVANLIGSGKGQSVVVTPQAGVITVRAFPDDIREVREFLGVSQERMQRQVILEAKILEVTLSDGYQQGINWSNLSASIGNSGSIIVNRPASALPPLDAIGTLLGGQTNVTISDGNFEAVLNFMSTQGDLNVLSSPRITAANNQKSVIKVGTDQYFVTELSSNAGNGENSNAVPEVELTPFFSGISLDVTPQIDNKGNVFLHVHPAVIEVTEEVKQLNLGGDFQNIQLPLAKSSIRESDSVIRAKDGDVVVIGGLMKQQNVEQVSKVPFLGDVPALGHLFRNTSNVTQKTELVILLKPTVVGVNSWQKELERSRDLLQEWFPDAQLEHHHHHH, MSLKEVIFVLLNEFADWEGAFIAACLNQGVMPGSPVPYKVKTLSITKEPVSSIGGFRVLPDYDLKDMPEDYAGLILIGGMSWFSPEAELIAPLIEKAIKDKKVVGGICNASVFLAMHGFLNNVKHTSNTIDYLKQHVGERYTGDSNYVDQQAVRDGKIITANGTGQLEFCREILYALEADTAEAIEKSYLFYKNGEGHHHHHH, MGEVQREKVAVIIGPTAVGKTKLSIDLAKALNGEIISGDSMQIYRTMDIGTAKVTKAEMDGIPHYMIDIKNPEDSFSVAEFQERVRKHIREITERGKLPIIVGGTGLYIQSVLFDYQFTDDAGDVIYREQREKLALERGVEYVHEKLQEVDPESAERIHANNVRRVIRALEIFHTTGEKMSEQIEKQEKELLYDVSLIGLTMDREMLYDRINLRVDLMMEQGLLEEVEGLYNRGIRDCQSIQAIGYKEIYDYFENRASLEDAVSQLKTNSRRYAKRQLTWFRNKMDVTWFDVTDGEKTSEILRYIEGKLQVKSNNSKLEHHHHHH, MGQIQYSEKYFDDTFEYRHVVLPPEVAKLLPKNRLLSENEWRAIGVQQSRGWVHYAVHRPEPHIMLFRRPLNYQQQQENQAQNMLVK, GRPVITTSIVQDQGIDELEAAIASLFFESGIESGDVTYVSNSRHIALLEQAKRAVEDALEAIEMDVPIDMVQIDITRAWELLGEIIGDSVHESLIDQLFSQFCLG, SAENHCELLPPAPSGLGAGLGGGLCRRCSAGMGALAQRPGGVSKWVRLNVGGTYFLTTRQTLCRDPKSFLYRLCQADPDLDSDKDETGAYLIDRDPTYFGPVLNYLRHGKLVINKDLAEEGVLEEAEFYNITSLIKLVKDKIRERDSRISQMPVKHVYRVLQCQEEELTQMVSTMSDGWKFEQLVSIGSSYNYGNEDQAEFLCVVSKELHNTPYGTTSEPSEKAKILQERGSRM, MHALHFSASDKAALYREVLPQIESVVADETDWVANLANTAAVLKEAFGWFWVGFYLVDTRSDELVLAPFQGPLACTRIPFGRGVCGQAWAKGGTVVVGDVDAHPDHIACSSLSRSEIVVPLFSDGRCIGVLDADSEHLAQFDETDALYLGELAKILEKRFEASRQAV, MLWTENITLRFGGVTALDNVSVEVRRGEILGIIGPNGAGKTSLLNVITGVYKPQRGRVYFKGRDITGLKPHQRITLGLSRTFQHSELFHSMTVLENIMVRLHPWTRGSILEKALWAFRAKRWEVEARERAEHVIDLLDLHEHRHSPIGALPPGIQKKVDLAGALAQNPEVVLMDEPMAGLSKEEKEDIVRAIIETSETMHTTMVLIEHDMEVVTDVCDRVVVMDYGKVIFEGPPHEAVADERVRKAYLGE, GEIYDEHDEVEAVQTLDNNTWLVLPNVKAAFFFNKWIKRDLVKSKNMTIQRYLASFENDGLNTQNKLETPWFIAEAIVDSENPEQIRYEIRKKSDVVD, MPHIVKSTILDAPTDAAWSVLRDFNGHDRWHPAVATSMIERAQPSDKIGCVRRFKLKDGSELREQLLALSDLEQSFSYCLLDTPVPMFNYVAHVRLLPVTDGDRTFWHWESRFTTRPEDKDRITHMVAEDIYQAGFEAIRRHLKEAASSWPLEHHHHHH
